Experimental data taken from article PMC3064781 (Nucleic Acids Research, 2010).

Target: the molecule itself
Assay: crystal structure

B1: Nep1 from Archaeoglobus fulgidus (enzyme)
chain: MGSAFVFLEASLELIPQKIRGHPAVRADAIRRGKRPEKILLDDSKHHTAMKSLEFREKRGRPDIVHQCLLLLLDSPLRDFEVYVHTLNGEIIWVNRETRLPRNYNRFVGLMEKLFEERRITAGDTTLIEFKDVGLRDIVRGRDVLLFREKGGRFEFSELLDGDVAVCIGAFPHGDFFEETLRELGEFKEVSLGTESYTSLYVTSRVLCEYERVRAHKVG
binding result: binds
